One data set concerns the target T1, HA-tagged VEGFR1 (human, UniProt P17948 800-1338, limits assumed).
T1 construct: also called HA-VEGFR1; cytoplasmic domain of VEGFR1; not shown: HA tag (pCMV-HA vector)
T1 sequence: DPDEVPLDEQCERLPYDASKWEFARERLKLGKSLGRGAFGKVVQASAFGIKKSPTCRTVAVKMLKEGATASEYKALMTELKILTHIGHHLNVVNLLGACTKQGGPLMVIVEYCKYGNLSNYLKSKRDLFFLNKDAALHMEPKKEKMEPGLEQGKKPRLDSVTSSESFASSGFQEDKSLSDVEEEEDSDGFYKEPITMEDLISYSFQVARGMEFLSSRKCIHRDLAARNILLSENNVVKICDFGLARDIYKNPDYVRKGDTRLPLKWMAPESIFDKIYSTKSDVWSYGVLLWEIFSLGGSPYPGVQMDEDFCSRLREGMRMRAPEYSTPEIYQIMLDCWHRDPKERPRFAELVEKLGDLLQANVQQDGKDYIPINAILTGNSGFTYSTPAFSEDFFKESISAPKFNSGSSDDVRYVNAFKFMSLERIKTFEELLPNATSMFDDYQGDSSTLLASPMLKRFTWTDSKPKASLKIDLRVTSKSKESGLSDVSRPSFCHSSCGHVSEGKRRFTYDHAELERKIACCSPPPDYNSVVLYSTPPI
Put plainly: co-immunoprecipitation (anti-HA or anti-Flag IP, western blot), HEK293 cells. From the text: FIG. 3 depicts the interaction between SMYD3 and VEGFR1. Part a depicts the interaction between SMYD3 and VEGFR1, examined by a co-immunoprecipitation assay using extract from HEK293 cells expressing HA-tagged SMYD3 and different regions of Flag-tagged VEGFR1 (VEGFR1#1, #2, and #3). Part b depicts the interaction of endogenous SMYD3 with VEGFR1. Whole cell extracts from SNU423, SW480, and MCF7 cells expressing both SMYD3 and VEGFR1 were precipitated with anti-SMYD3 antibody. The precipitants were immunoblotted with anti-VEGFR-1 antibody (upper panel) or anti-SMYD3 antibody (lower panel). Part c depicts the association of VEGFR1 with the SET domain of SMYD3. Wild type or deleted forms of Flag-tagged SMYD3 (N-20, delta 2, or delta 3) were co-expressed with HA-tagged VEGFR1 in HEK293 cells. IP was performed with either anti-HA or anti-Flag antibody, and the precipitants were analyzed by western blot analysis with anti-Flag (upper panel) or anti-HA (lower panel) antibody. Part d depicts the interaction of the cytoplasmic region of VEGFR1 with the SET domain of SMYD3 in vivo. Flag-tagged wild type or the SET domain of SMYD3 was co-expressed with HA-tagged VEGFR1 in HEK293 cells. Extracts from the cells were precipitated with anti-Flag (upper panel) or anti-HA (lower panel) antibodies, and the precipitants were analyzed by western blot analysis with anti-HA antibody. […]

The next data set addresses T2, HA-tagged SMYD3 (human, UniProt Q9H7B4 1-428).
T2 construct: also called ZNFN3A1; not shown: HA tag
T2 sequence: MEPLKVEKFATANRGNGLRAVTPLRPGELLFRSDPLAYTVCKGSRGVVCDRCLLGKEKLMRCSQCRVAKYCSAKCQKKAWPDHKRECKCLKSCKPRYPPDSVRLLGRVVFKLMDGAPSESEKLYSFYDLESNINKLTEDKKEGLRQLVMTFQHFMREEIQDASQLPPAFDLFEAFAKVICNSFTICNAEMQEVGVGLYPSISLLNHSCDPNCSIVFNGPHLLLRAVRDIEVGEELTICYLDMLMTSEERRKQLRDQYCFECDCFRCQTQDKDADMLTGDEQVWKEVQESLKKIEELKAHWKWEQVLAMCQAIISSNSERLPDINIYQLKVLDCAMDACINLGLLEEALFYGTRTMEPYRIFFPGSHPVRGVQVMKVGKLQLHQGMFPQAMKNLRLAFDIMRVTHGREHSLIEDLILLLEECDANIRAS
Nature of the data set: co-immunoprecipitation (IP anti-HA, immunoblot anti-Flag), HEK293 cells. The method, then:
Extraction of protein, IP, and Western blot analysis were performed according to methods described in the literature (Hamamoto R et al., S Nature cell biology 2004, 6(8): 731-40). Immunoblot analysis was carried out with anti-SMYD3 (Abcam, Cambridge, Mass.), anti-HA (Sigma, St Louis, Mo.), anti-Flag (Sigma), anti-GST (B D Pharmingen, San Diego, Calif.), anti-beta-actin (Sigma), or anti-phospho-Tyrosine (PY20; Sigma) antibodies. HRP-conjugated second antibody was used for the ECL Detection System (Amersham Biosciences, Piscataway, N.J.). Recombinant histone H3 and VEGFR1 (3108) were purchased from Upstate Biotechnology (Lake Placid, N.Y.) and Calbiochem (San Diego, Calif.), respectively.
Since VEGFR1 was methylated by SMYD3, the inventors investigated whether SMYD3 interacts with VEGFR1. The present inventors expressed Flag-tagged cytoplasmic regions of VEGFR1 together with HA-tagged SMYD3 in HEK293 cells. Immunoprecipitation with anti-HA antibody, and subsequent immunoblot analysis with anti-Flag antibody disclosed that SMYD3 associates with VEGFR1#1 (codons 800-1000) but not VEGFR1#2 or VEGFR1#3 (FIG. 3a). Consistently, IP with anti-Flag antibody and subsequent immunoblot analysis with anti-HA antibody corroborated the interaction between SMYD3 and VEGFR1#1 (FIG. 3a). […]
In general terms: A western blot detects proteins with antibodies after separation by electrophoresis.

The target of data set [1] is T3, recombinant GST-fused VEGFR1#1 (codons 800-1000).
T3 chain: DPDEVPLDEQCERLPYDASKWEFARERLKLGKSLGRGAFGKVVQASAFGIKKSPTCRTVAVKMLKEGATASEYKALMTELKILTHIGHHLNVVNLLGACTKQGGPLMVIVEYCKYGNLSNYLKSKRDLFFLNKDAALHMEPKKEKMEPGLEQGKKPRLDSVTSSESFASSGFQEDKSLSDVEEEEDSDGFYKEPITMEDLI

B1: Flag-tagged SMYD3-delta 3 (codons 250-428) (enzyme)
chain: RKQLRDQYCFECDCFRCQTQDKDADMLTGDEQVWKEVQESLKKIEELKAHWKWEQVLAMCQAIISSNSERLPDINIYQLKVLDCAMDACINLGLLEEALFYGTRTMEPYRIFFPGSHPVRGVQVMKVGKLQLHQGMFPQAMKNLRLAFDIMRVTHGREHSLIEDLILLLEECDANIRAS
notes: Deleted form of SMYD3 lacking the SET domain; also called flag-SMYD3-D3; not shown: Flag tag
As to B1, the binding result with HA-tagged VEGFR1 is recorded as “no binding”.

B2: Flag-tagged VEGFR1#3 (codons 1200-1338) (receptor)
chain: APKFNSGSSDDVRYVNAFKFMSLERIKTFEELLPNATSMFDDYQGDSSTLLASPMLKRFTWTDSKPKASLKIDLRVTSKSKESGLSDVSRPSFCHSSCGHVSEGKRRFTYDHAELERKIACCSPPPDYNSVVLYSTPPI
notes: Cytoplasmic fragment of VEGFR1 expressed in HEK293 cells; also called flag-VEGFR1#3; not shown: Flag tag (3xFlag vector)
Turning to B2, in the data set with HA-tagged SMYD3, the binding result is “no binding”.

B3: Flag-tagged VEGFR1#2 (codons 1000-1200) (receptor)
chain: ISYSFQVARGMEFLSSRKCIHRDLAARNILLSENNVVKICDFGLARDIYKNPDYVRKGDTRLPLKWMAPESIFDKIYSTKSDVWSYGVLLWEIFSLGGSPYPGVQMDEDFCSRLREGMRMRAPEYSTPEIYQIMLDCWHRDPKERPRFAELVEKLGDLLQANVQQDGKDYIPINAILTGNSGFTYSTPAFSEDFFKESISA
notes: Cytoplasmic fragment of VEGFR1 expressed in HEK293 cells; also called flag-VEGFR1#2; not shown: Flag tag (3xFlag vector)
As for B3, the binding result with HA-tagged SMYD3 is reported as “no binding”.

B4: Flag-tagged wild-type SMYD3 (p3XFLAG-CMV-SMYD3) (protein)
chain: T2 sequence
For B4, in data set [1], the “in vitro MTase assay, methylation compared to recombinant histone H3” value is recorded as “Approximately three-fold higher methylation of VEGFR1#1 was detected as compared to recombinant histone H3 in vitro (data not shown)”.

Values taken from patent US20100184088A1 (ONCOTHERAPY SCIENCE, published 2010).
